± gives the standard error.
B1: library; numbered along this chain (parent)
chain: MATDAALRRLLRLHRTEIAVAVDSAFPLLHALADHDVVPEDKFQETLHLKEKEGCPQAFHALLSWLLTQDSTAILDFWRVLFKDYNLERYGRLQPILDSFPKDVDLSQPRKGRKPPAVPKALVPPPRLPTKRKASEEARAAAPAALTPRGTASPGSQLKAKPPKKPESSAEQQRLPLGNGIQTMSASVQRAVAMSSGDVPGARGAVEGILIQQVFESGGSKKCIQVGGEFYTPSKFEDSGSGKNKARSSSGPKPLVRAKGAQGAAPGGGEARLGQQGSVPAPLALPSDPQLHQKNEDECAVCRDGGELICCDGCPRAFHLACLSPPLREIPSGTWRCSSCLQATVQEVQPRAEEPRPQEPPVETPLPPGLRSAGEEVRGPPGEPLAGMDTTLVYKHLPAPPSAAPLPGLDSSALHPLLCVGPEGQQNLAPGARCGVCGDGTDVLRCTHCAAAFHWRCHFPAGTSRPGTGLRCRSCSGDVTPAPVEGVLAPSPARLAPGPAKDDTASHEPALHRDDLESLLSEHTFDGILQWAIQSMARPAAPFPS

Variants of: B1
Experiment: AIRE transcriptional activation functional score (insulin promoter-GFP; nonsense median 0, synonymous median 1) (normalised score); higher = higher AIRE activity (more reporter activation)
Conditions: with insulin promoter-GFP reporter in HEK293
Outline: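 Flp-In T-REx HEK293 landing-pad cells carrying an insulin core promoter-GFP reporter received codon-optimized AIRE NNN-codon libraries (three regions) through Bxb1 recombinase. Sorting of mCherry+, BFP− integrants took place at day 7, followed by 7 days of expansion and tile-sequencing of top 10% GFP and unselected integrant populations. A functional score was derived from select versus non-select variant enrichment with wild type subtracted. Values from variants reaching 10 counts per million in non-select were set to nonsense median 0 and synonymous median 1 and averaged over biological replicates.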

Variant	AIRE transcriptional activation functional score
V118Y	1.42 ± 0.34
R110K	1.25 ± 0.57
V206L	1.1 ± 0.28
H523Q	0.954 ± 0.57
E354K	0.669 ± 0.23
E354F	1.33 ± 0.15
E354N	0.818 ± 0.16
T3K	1.31 ± 0.12
K102D	0.758 ± 0.45
K102M	0.607 ± 0.14
K102C	0.948 ± 0.33
K102E	1.25 ± 0.48
L75Q	0.0287 ± 0.28
A450P	0.565 ± 0.12
L7T	1.26 ± 0.37
L7P	0.0964 ± 0.66
T480N	0.784 ± 0.37
F215T	-0.146 ± 0.21
C419S	0.615 ± 0.4
C419I	0.681 ± 0.19
C419F	1.64 ± 0.15
C419E	1.04 ± 0.084
D34M	-1.08 ± 0.3
S24Q	-0.0656 ± 0.18

Variant	AIRE transcriptional activation functional score
I211D	0.837 ± 0.1
S156V	1.13 ± 0.6
G313R	0.762 ± 0.31
G313T	0.676 ± 0.23
F230W	0.97 ± 0.041
P163M	0.889 ± 0.24
R456K	0.0856 ± 0.29
P331W	1.26 ± 0.029
S506W	0.477 ± 0.064
S474I	0.0981 ± 0.21
D98P	0.632 ± 0.26
D98W	-0.885 ± 0.15
D98K	-0.443 ± 0.084
A505G	0.337 ± 0.36
G305L	1.31 ± 0.4
G305P	0.937 ± 0.17
D288H	0.855 ± 0.19
I74K	0.384 ± 0.13
H507A	0.96 ± 0.58
H507Y	1.18 ± 0.29
G498C	1.23 ± 0.42
P115C	0.977 ± 0.18
Y231T	0.493 ± 0.17
A186F	-0.0353 ± 0.21

Variant	AIRE transcriptional activation functional score
A170D	0.761 ± 0.51
D84S	1.11 ± 0.31
D84V	-0.00793 ± 0.2
A145D	0.593 ± 0.25
G438D	0.196 ± 0.064
G438A	1.21 ± 0.32
T524Q	0.0994 ± 0.1
I528M	0.456 ± 0.027
D198Y	0.99 ± 0.059
D198T	1.51 ± 0.21
N295I	0.856 ± 0.15
H292D	0.892 ± 0.31
P124S	1.08 ± 0.38
P124N	0.804 ± 0.27
P124T	0.68 ± 0.46
M194S	0.554 ± 0.26
N244D	1.1 ± 0.091
N244A	0.269 ± 0.054
L122V	0.859 ± 0.41
C340T	1.71 ± 0.15
Q426V	1.29 ± 0.083
A429D	1.07 ± 0.29
D23M	0.267 ± 0.36
D23V	-0.286 ± 0.3

Variant	AIRE transcriptional activation functional score
F59W	0.208 ± 0.13
S411F	1.46 ± 0.16
V279E	1.08 ± 0.12
L255G	1.24 ± 0.31
L255A	0.9 ± 0.5
A141S	1.01 ± 0.49
T391L	1.06 ± 0.41
T391G	0.941 ± 0.15
V301S	1 ± 0.43
S71G	0.809 ± 0.75
L158M	0.957 ± 0.086
Q530K	0.392 ± 0.086
G240Y	-0.451 ± 0.065
L392P	0.582 ± 0.24
Q425L	1.18 ± 0.11
Q425Y	1.28 ± 0.075
Q425H	1.3 ± 0.16
G435H	0.284 ± 0.12
G435V	0.849 ± 0.31
T147H	1.22 ± 1.1
H60C	-0.27 ± 0.15
H60I	0.216 ± 0.5
G227I	-0.209 ± 0.36
G227V	0.378 ± 0.5

Variant	AIRE transcriptional activation functional score
G306V	0.712 ± 0.12
L397F	0.99 ± 0.17
P200T	0.911 ± 0.43
D103R	0.339 ± 0.51
L87E	1.49 ± 0.05
L87S	0.0056 ± 0.76
L366H	1.21 ± 0.13
A317C	1.28 ± 0.24
Q108S	0.618 ± 0.61
T151P	1.01 ± 0.39
R149C	0.794 ± 0.24
E517H	0.164 ± 0.15
K222A	0.955 ± 0.42
G54E	0.772 ± 0.34
S278W	1.19 ± 0.12
S278F	1 ± 0.2
D76C	0.409 ± 0.76
D76N	-0.077 ± 0.96
Y394H	0.428 ± 0.44
P490M	0.144 ± 0.12
G91T	0.431 ± 0.56
R132H	0.458 ± 0.6
R132D	0.252 ± 0.23
C437I	0.106 ± 0.14

Variant	AIRE transcriptional activation functional score
F82M	-1.23 ± 0.75
F82L	0.0208 ± 0.29
P39Q	0.348 ± 0.4
P39F	1.34 ± 0.45
G408T	0.879 ± 0.18
K235S	0.877 ± 0.46
K235N	0.479 ± 0.43
L409K	0.881 ± 0.045
K164Q	0.909 ± 0.12
K164P	1.62 ± 0.12
K164G	1.83 ± 0.32
K164E	0.857 ± 0.29
G180K	1.02 ± 0.72
L511V	0.838 ± 0.41
L511P	0.736 ± 0.18
L529W	1.39 ± 0.097
H454F	0.117 ± 0.17
P355C	1.05 ± 0.086
G527C	0.656 ± 0.045
G527R	0.305 ± 0.14
G431Y	0.576 ± 0.32
S332P	0.628 ± 0.17
S332T	1.23 ± 0.26
W78I	0.15 ± 0.38

Variant	AIRE transcriptional activation functional score
A493T	0.878 ± 0.31
A140Y	1.38 ± 0.29
P101I	-0.0207 ± 0.17
L370T	1.03 ± 0.069
G178C	1.22 ± 0.6
L495D	1.68 ± 0.12
L495V	1.07 ± 0.22
V256Q	0.671 ± 0.27
P407Q	1.2 ± 0.15
S287Q	1.24 ± 0.38
L106N	0.233 ± 0.22
L285I	1.02 ± 0.082
S249H	0.402 ± 0.24
P466G	1.23 ± 0.09
P466R	0.843 ± 0.16
M184V	0.51 ± 0.29
M184S	0.488 ± 0.41
M184E	-0.977 ± 0.11
I209F	0.905 ± 0.16
P497C	1.28 ± 0.1
P497K	0.828 ± 0.14
A138W	1.66 ± 0.094
G333W	1.82 ± 0.046
